{
  "source": "paper doi:10.1101/2020.03.10.986331",
  "data": [
    {"target": "SPPV14ΔC31 (sheeppoxvirus SPPV14 residues 1-145, 31 residue C-terminal deletion) (sheeppoxvirus)", "test": "ITC", "units": {"Kd": "nM"}, "values": [
      {"molecule": "Bad BH3 motif peptide (human)", "Kd": 5200},
      {"molecule": "Bax BH3 motif peptide (human, 28-mer)", "Kd": 26},
      {"molecule": "Hrk BH3 motif peptide (human, 26-mer)", "Kd": 39},
      {"molecule": "VPGRLAEVCAVLLRLGDELEMIRPSV", "note": "[Bok BH3 motif peptide (human, residues 59-84)]", "Kd": 7600}
    ]}
  ]
}
